From PMC2115935

Molecular target: integral membrane proteins of stripped rat liver cell membranes (rat (endogenous in liver))
Experiment: co-sedimentation

- Kd: 1600 nM
Substance: Actin, isolated from rabbit skeletal muscle, 125I-labeled (from UniProt P68135 1-377) (natural protein)
